One block for each binder: values may come before it.
Legend:
4H2608-AA = target: T1, 4H2608-AA; test: two-hybrid library CCmax; details: mean of both orientations;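 also: natural log of median RNA to DNA barcode read ratio; higher means stronger binding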
T1 chain: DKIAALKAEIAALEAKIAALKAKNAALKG

4H4033-AA = target: T2, 4H4033-AA; test: two-hybrid library CCmax; details: mean of both orientations;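 also: natural log of median RNA to DNA barcode read ratio; higher means stronger binding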
T2 chain: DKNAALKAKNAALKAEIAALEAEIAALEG

4H2935-AA = target: T3, 4H2935-AA; test: two-hybrid library CCmax; details: mean of both orientations;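 also: natural log of median RNA to DNA barcode read ratio; higher means stronger binding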
T3 chain: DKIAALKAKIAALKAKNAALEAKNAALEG

4H481-AA = target: T4, 4H481-AA; test: two-hybrid library CCmax; details: mean of both orientations;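 also: natural log of median RNA to DNA barcode read ratio; higher means stronger binding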
T4 chain: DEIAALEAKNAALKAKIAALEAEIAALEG

4H2513-AA = target: T5, 4H2513-AA; test: two-hybrid library CCmax; details: mean of both orientations;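 also: natural log of median RNA to DNA barcode read ratio; higher means stronger binding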
T5 chain: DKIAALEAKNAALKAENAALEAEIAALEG

4H3605-AA = target: T6, 4H3605-AA; test: two-hybrid library CCmax; details: mean of both orientations;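 also: natural log of median RNA to DNA barcode read ratio; higher means stronger binding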
T6 chain: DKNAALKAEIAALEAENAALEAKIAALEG

4H369-AA = target: T7, 4H369-AA; test: two-hybrid library CCmax; details: mean of both orientations
T7 chain: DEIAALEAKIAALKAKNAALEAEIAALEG

4H2726-AA = target: T8, 4H2726-AA; test: two-hybrid library CCmax; details: mean of both orientations
T8 chain: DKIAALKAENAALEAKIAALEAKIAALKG

4H2536-AA = target: T9, 4H2536-AA; test: two-hybrid library CCmax; details: mean of both orientations
T9 chain: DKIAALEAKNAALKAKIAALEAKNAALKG

4H2211-AA = target: T10, 4H2211-AA; test: two-hybrid library CCmax
T10 chain: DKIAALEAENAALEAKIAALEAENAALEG

4H55-AA = target: T11, 4H55-AA; test: two-hybrid library CCmax; details: mean of both orientations
T11 chain: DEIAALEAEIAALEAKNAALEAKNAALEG

4H327-AA = target: T12, 4H327-AA; test: two-hybrid library CCmax; details: mean of both orientations
T12 chain: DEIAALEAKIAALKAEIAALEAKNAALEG

4H2238-AA = target: T13, 4H2238-AA; test: two-hybrid library CCmax; details: mean of both orientations
T13 chain: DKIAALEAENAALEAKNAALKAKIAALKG

4H3922-AA = target: T14, 4H3922-AA; test: two-hybrid library CCmax; details: mean of both orientations
T14 chain: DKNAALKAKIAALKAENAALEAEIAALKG

4H3625-AA = target: T15, 4H3625-AA; test: two-hybrid library CCmax; details: mean of both orientations
T15 chain: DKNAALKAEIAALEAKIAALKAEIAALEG

4H2614-AA = target: T16, 4H2614-AA; test: two-hybrid library CCmax; details: mean of both orientations
T16 chain: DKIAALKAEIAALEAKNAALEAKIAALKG

4H662-AA = target: T17, 4H662-AA; test: two-hybrid library CCmax; details: mean of both orientations
T17 chain: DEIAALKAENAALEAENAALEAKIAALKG

4H3664-AA = target: T18, 4H3664-AA; test: two-hybrid library CCmax; details: mean of both orientations
T18 chain: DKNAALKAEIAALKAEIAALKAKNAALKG

4H2931-bN = target: T19, 4H2931-bN; test: two-hybrid library CCNG1
T19 chain: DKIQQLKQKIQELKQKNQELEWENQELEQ

4H3041-bN = target: T20, 4H3041-bN; test: two-hybrid library CCNG1
T20 chain: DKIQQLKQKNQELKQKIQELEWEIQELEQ

4H796-bN = target: T21, 4H796-bN; test: two-hybrid library CCNG1
T21 chain: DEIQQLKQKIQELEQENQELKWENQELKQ

4H349-bN = target: T22, 4H349-bN; test: two-hybrid library CCNG1
T22 chain: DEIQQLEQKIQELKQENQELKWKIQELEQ

4H730-bN = target: T23, 4H730-bN; test: two-hybrid library CCNG1
T23 chain: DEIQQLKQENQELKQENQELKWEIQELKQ

4H3297-bN = target: T24, 4H3297-bN; test: two-hybrid library CCNG1
T24 chain: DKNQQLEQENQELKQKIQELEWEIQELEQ

4H2518-bN = target: T25, 4H2518-bN; test: two-hybrid library CCNG1
T25 chain: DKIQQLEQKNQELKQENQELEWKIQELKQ

4H264-bN = target: T26, 4H264-bN; test: two-hybrid library CCNG1
T26 chain: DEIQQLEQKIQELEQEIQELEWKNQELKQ

4H949-bN = target: T27, 4H949-bN; test: two-hybrid library CCNG1
T27 chain: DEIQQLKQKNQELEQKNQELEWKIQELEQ

4H932-bN = target: T28, 4H932-bN; test: two-hybrid library CCNG1
T28 chain: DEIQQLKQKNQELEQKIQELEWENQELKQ

4H56-bN = target: T29, 4H56-bN; test: two-hybrid library CCNG1
T29 chain: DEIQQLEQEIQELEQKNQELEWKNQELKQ

4H3381-bN = target: T30, 4H3381-bN; test: two-hybrid library CCNG1
T30 chain: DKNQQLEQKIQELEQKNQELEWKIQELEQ

4H2585-bN = target: T31, 4H2585-bN; test: two-hybrid library CCNG1
T31 chain: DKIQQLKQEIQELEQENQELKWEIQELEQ

4H3364-bN = target: T32, 4H3364-bN; test: two-hybrid library CCNG1
T32 chain: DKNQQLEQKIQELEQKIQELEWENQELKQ

4H2760-bN = target: T33, 4H2760-bN; test: two-hybrid library CCNG1
T33 chain: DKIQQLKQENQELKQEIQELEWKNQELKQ

4H2444-bN = target: T34, 4H2444-bN; test: two-hybrid library CCNG1
T34 chain: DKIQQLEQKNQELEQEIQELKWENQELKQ

4H2859-bN = target: T35, 4H2859-bN; test: two-hybrid library CCNG1
T35 chain: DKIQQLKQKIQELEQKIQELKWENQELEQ

4H235-bN = target: T36, 4H235-bN; test: two-hybrid library CCNG1
T36 chain: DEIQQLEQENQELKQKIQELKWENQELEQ

4H4038-AA = target: T37, 4H4038-AA; test: two-hybrid library CCmax; details: mean of both orientations
T37 chain: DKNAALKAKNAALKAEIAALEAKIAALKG

4H3587-AA = target: T38, 4H3587-AA; test: two-hybrid library CCmax; details: mean of both orientations
T38 chain: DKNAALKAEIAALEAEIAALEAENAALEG

4H_BCR = target: T39, 4H_BCR; test: two-hybrid library CCmax; details: mean of both orientations
T39 chain: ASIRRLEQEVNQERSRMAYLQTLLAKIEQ

GCN2_T = test: two-hybrid library CCmax; details: mean of both orientations
4H2736-AA = target: T40, 4H2736-AA; test: two-hybrid library CCmax; details: mean of both orientations
T40 chain: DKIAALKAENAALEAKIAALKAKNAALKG

4H451-AA = target: T41, 4H451-AA; test: two-hybrid library CCmax; details: mean of both orientations
T41 chain: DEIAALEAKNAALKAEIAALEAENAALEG

4H2622-AA = target: T42, 4H2622-AA; test: two-hybrid library CCmax
T42 chain: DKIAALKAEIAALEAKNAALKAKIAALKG

4H_GCN4 = test: two-hybrid library CCmax; details: mean of both orientations
4H_GCN4, sequence (chain, as listed by the source): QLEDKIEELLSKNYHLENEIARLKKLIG

O14-AA = target: T43, O14-AA; test: two-hybrid library CCmax; details: mean of both orientations
T43 chain: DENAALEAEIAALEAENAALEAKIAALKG

4H384-AA = target: T44, 4H384-AA; test: two-hybrid library CCmax; details: mean of both orientations
T44 chain: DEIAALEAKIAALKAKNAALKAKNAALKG

4H3905-AA = target: T45, 4H3905-AA; test: two-hybrid library CCmax; details: mean of both orientations
T45 chain: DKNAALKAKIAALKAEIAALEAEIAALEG

4H2888-AA = target: T46, 4H2888-AA; test: two-hybrid library CCmax; details: mean of both orientations
T46 chain: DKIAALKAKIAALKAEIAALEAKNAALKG

4H337-AA = target: T47, 4H337-AA; test: two-hybrid library CCmax; details: mean of both orientations
T47 chain: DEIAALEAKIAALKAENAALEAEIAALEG

4H43-AA = target: T48, 4H43-AA; test: two-hybrid library CCmax; details: mean of both orientations
T48 chain: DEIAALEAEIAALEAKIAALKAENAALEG

4H_APH = target: T49, 4H_APH; test: two-hybrid library CCmax; details: mean of both orientations
T49 chain: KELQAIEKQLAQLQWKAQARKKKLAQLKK

4H3590-AA = target: T50, 4H3590-AA; test: two-hybrid library CCmax; details: mean of both orientations
T50 chain: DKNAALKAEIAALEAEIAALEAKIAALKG

O11-AA = target: T51, O11-AA; test: two-hybrid library CCmax; details: mean of both orientations
T51 chain: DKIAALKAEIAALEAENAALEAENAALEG

4H3049-AA = target: T52, 4H3049-AA; test: two-hybrid library CCmax; details: mean of both orientations
T52 chain: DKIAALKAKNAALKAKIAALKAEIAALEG

O13-AA = target: T53, O13-AA; test: two-hybrid library CCmax; details: mean of both orientations
T53 chain: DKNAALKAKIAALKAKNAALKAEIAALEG

4H510-AA = target: T54, 4H510-AA; test: two-hybrid library CCmax; details: mean of both orientations
T54 chain: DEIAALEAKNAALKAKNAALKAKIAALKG

4H2705-AA = target: T55, 4H2705-AA; test: two-hybrid library CCmax; details: mean of both orientations
T55 chain: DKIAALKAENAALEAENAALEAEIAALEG

interaction score (4H2608-AA): -0.966
interaction score (4H4033-AA): -1.42
interaction score (4H2935-AA): -1.25
interaction score (4H481-AA): 1.2
interaction score (4H2513-AA): -1.48
interaction score (4H3605-AA): -1.6
interaction score (4H369-AA): -1.37
interaction score (4H2726-AA): 0.569
interaction score (4H2536-AA): 1.92
interaction score (4H2211-AA): -0.565
interaction score (4H55-AA): -1.44
interaction score (4H327-AA): -1.1
interaction score (4H2238-AA): -1.07
interaction score (4H3922-AA): -1.15
interaction score (4H3625-AA): -1.16
interaction score (4H2614-AA): -1.44
interaction score (4H662-AA): -1.54
interaction score (4H3664-AA): -1.82
B1: 4H2211-AA (peptide)
chain: DKIAALEAENAALEAKIAALEAENAALEG

interaction score (4H2931-bN): -0.103
interaction score (4H3041-bN): 0.447
interaction score (4H796-bN): -0.0985
interaction score (4H349-bN): -0.375
interaction score (4H730-bN): -0.506
interaction score (4H3297-bN): -0.0483
interaction score (4H2518-bN): -0.0731
interaction score (4H264-bN): 0.471
interaction score (4H949-bN): -0.477
interaction score (4H932-bN): 0.018
interaction score (4H56-bN): 0.273
interaction score (4H3381-bN): 0.0258
interaction score (4H2585-bN): -0.578
interaction score (4H3364-bN): -0.17
interaction score (4H2760-bN): -0.126
interaction score (4H2444-bN): 1.34
interaction score (4H2859-bN): 0.194
B2: 4H2444-bN (peptide)
chain: DKIQQLEQKNQELEQEIQELKWENQELKQ

interaction score (4H235-bN): 0.562
interaction score (4H2931-bN): -1.14
interaction score (4H3041-bN): -0.319
interaction score (4H796-bN): -0.458
interaction score (4H349-bN): -0.0107
interaction score (4H730-bN): -1.94
interaction score (4H3297-bN): -0.527
interaction score (4H2518-bN): -0.299
interaction score (4H264-bN): -0.206
interaction score (4H949-bN): -0.438
interaction score (4H932-bN): -0.682
interaction score (4H56-bN): -0.626
interaction score (4H3381-bN): -1.48
interaction score (4H2585-bN): -0.77
interaction score (4H3364-bN): 0.709
interaction score (4H2760-bN): 2.03
interaction score (4H2444-bN): -0.884
interaction score (4H2859-bN): 0.00948
B3: 4H235-bN (peptide)
chain: DEIQQLEQENQELKQKIQELKWENQELEQ

interaction score (4H4038-AA): -1.2
interaction score (4H3587-AA): 0.659
interaction score (4H_BCR): -0.274
interaction score (GCN2_T): 0.0302
interaction score (4H2736-AA): -0.125
interaction score (4H451-AA): -0.0617
interaction score (4H2622-AA): 1.07
interaction score (4H_GCN4): 0.309
interaction score (O14-AA): 2.2
interaction score (4H384-AA): -1.12
interaction score (4H3905-AA): 1.43
interaction score (4H2888-AA): 0.116
interaction score (4H337-AA): 2.35
interaction score (4H43-AA): 1.57
interaction score (4H_APH): -1.87
interaction score (4H3590-AA): 0.684
interaction score (O11-AA): 1.62
interaction score (4H3049-AA): 0.212
interaction score (O13-AA): 0.551
interaction score (4H510-AA): -0.508
interaction score (4H3625-AA): 1.6
interaction score (4H2705-AA): 0.956
B4: 4H2622-AA (peptide)
chain: DKIAALKAEIAALEAKNAALKAKIAALKG
